Read-outs that look alike come from different tables or passages of the source.
Assays:
EMCV = EMCV antiviral dye-uptake assay in HepG2 cells; type: cell-based, human; details: dye-uptake OD570
[1] = tested on: respiratory syncytial virus; type: cell-based; details: MA-104 cells
rhino virus [2] = type: cell-based
[3] = tested on: encephelomyocarditis virus; assay: Antiviral assay: cytopathic effect in L929 cells; type: cell-based, mouse
dengue virus [4] = type: cell-based; details: Vero cells
parainfluenza virus = type: cell-based; details: MA-104 cells
coxsackie virus = type: cell-based; details: Coxsackie B4 virus, KB cells
polio virus [5] = type: cell-based; details: Vero cells
adenovirus = type: cell-based; details: A549 cells
pichinde virus [6] = type: cell-based
dengue virus [7] = type: cell-based; details: Vero cells; remark: listed apart in the source
rhino virus [8] = type: cell-based; remark: listed apart in the source
west nile virus = type: cell-based; details: Vero cells
influenza virus = type: cell-based; details: Influenza (type A [H3N2])
[9] = tested on: venezuelan equine encephalitis virus; type: cell-based; details: Vero cells
[10] = tested on: human marrow mononuclear cells; assay: Bone marrow expansion assay (Alamar Blue); type: cell-based
pichinde virus [11] = type: cell-based; remark: listed apart in the source
[12] = tested on: encephelomyocarditis virus; assay: Antiviral assay: cytopathic effect in HeLa cells; type: cell-based, human
vaccinia virus = type: cell-based; details: Vero cells
OAS = OAS activity in serum and plasma of mice (RIA)
HHV-8 = HHV-8 replication in BCBL-1 cells (TaqMan PCR)
[13] = tested on: respiratory syncytial virus; type: cell-based; details: MA-104 cells; remark: listed apart in the source
polio virus [14] = type: cell-based; details: Vero cells; remark: listed apart in the source
adenoviral vector, AdGFP = assay: Adenoviral (AdGFP) liver pathology in mice; type: in vivo, mouse; details: C57Bl/6 mice
Procedure: When injected intravenously, these viruses primarily target the liver for gene expression. The adenoviruses are replication deficient, but cause liver damage due to inflammatory cell infiltrate that can be monitored by measurement of serum levels of liver enzymes like AST and ALT, or by direct examination of liver pathology.
C57B116 mice were given once daily intraperitoneal injections of 50 μg mouse IL-28 (zcyto24 as shown in SEQ ID NO:8) or metIL-29C172S—PEG for 3 days. Control animals were injected with PBS. One hour following the 3rd dose, mice were given a single bolus intravenous tail vein injection of the adenoviral vector, AdGFP (1×10^9 plaque-forming units (pfu)). Following this, every other day mice were given an additional dose of PBS, mouse IL-28 or metIL-29C172S—PEG for 4 more doses (total of 7 doses). One hour following the final dose of PBS, mouse IL-28 or metIL-29C172S—PEG mice were terminally bleed and sacrificed. The serum and liver tissue were analyzed. Serum was analyzed for AST and ALT liver enzymes. Liver was isolated and analyzed for GFP expression and histology. For histology, liver specimens were fixed in formalin and then embedded in paraffin followed by H&E staining. Sections of liver that had been blinded to treat were examined with a light microscope. Changes were noted and scored on a scale designed to measure liver pathology and inflammation.

[15] = Maden-Darby Canine Kidney cells

B1: IL-29: human IL-29, previously designated zcyto21, SEQ ID NO:4 (protein, listed as Homo sapiens)
chain: MAAAWTVVLVTLVLGLAVAGPVPTSKPTTTGKGCHIGRFKSLSPQELASFKKARDALEESLKLKNWSCSSPVFPGNWDLRLLQVRERPVALEAELALTLKVLEAAAGPALEDVLDQPLHTLHHILSQLQACIQPQPTAGPRPRGRLHHWLHRLQEAPKKESAGCLEASVTFNLFRLLTRDLKYVADGNLCLRTSTHPEST
modifications: SIGNAL (1)...(19)
- EC50 antiviral activity (EMCV): 0.60 ng/mL
- EC50 NR [1]: >10 µg/mL
- IC50 NR [1]: >10 µg/mL
- EC50 NR (rhino virus [2]; Rhino 2, KB cells): >10 µg/mL
- IC50 NR (rhino virus [2]; Rhino 2, KB cells): >10 µg/mL
- EC50 NR (rhino virus [2]; Rhino 9, HeLa cells): 0.982 µg/mL
- IC50 NR (rhino virus [2]; Rhino 9, HeLa cells): >10 µg/mL
- Percentage Cytopathic Effect ([3]; relative CM conc. .008X): 87%
- Percentage Cytopathic Effect ([3]; relative CM conc. .0156X): 87%
- Percentage Cytopathic Effect ([3]; relative CM conc. .0325X): 87%
- Percentage Cytopathic Effect ([3]; relative CM conc. .0625X): 87%
- Percentage Cytopathic Effect ([3]; relative CM conc. .125X): 87%
- Percentage Cytopathic Effect ([3]; relative CM conc. .25X): 87%
- Percentage Cytopathic Effect ([3]; relative CM conc. .5X): 87%
- EC50 NR (dengue virus [4]): 0.05 µg/mL
- IC50 NR (dengue virus [4]): >10 µg/mL
- EC50 NR (parainfluenza virus): >10 µg/mL
- IC50 NR (parainfluenza virus): >10 µg/mL
- EC50 Visual (coxsackie virus): >10 µg/mL
- IC50 Visual (coxsackie virus): >10 µg/mL
- EC50 Visual (polio virus [5]): >10 µg/mL
- IC50 Visual (polio virus [5]): >10 µg/mL
- EC50 NR (adenovirus): >10 µg/mL
- IC50 NR (adenovirus): >10 µg/mL
- EC50 NR (pichinde virus [6]): >10 µg/mL
- IC50 NR (pichinde virus [6]): >10 µg/mL
- EC50 Visual (dengue virus [7]): 0.032 µg/mL
- IC50 Visual (dengue virus [7]): >10 µg/mL
- EC50 Visual (rhino virus [8]; Rhino 2, KB cells): >10 µg/mL
- IC50 Visual (rhino virus [8]; Rhino 2, KB cells): >10 µg/mL
- EC50 Visual (rhino virus [8]; Rhino 9, HeLa cells): >10 µg/mL
- IC50 Visual (rhino virus [8]; Rhino 9, HeLa cells): >10 µg/mL
- EC50 NR (west nile virus): 0.25 ng/mL
- IC50 NR (west nile virus): >10 µg/mL
- EC50 Visual (influenza virus; [15]): >10 µg/mL
- IC50 Visual (influenza virus; [15]): >10 µg/mL
- EC50 Visual (influenza virus; Vero cells): >10 µg/mL
- IC50 Visual (influenza virus; Vero cells): >10 µg/mL
- EC50 Visual [9]: 0.012 µg/mL
- IC50 Visual [9]: >10 µg/mL
- bone marrow cell expansion ([10]; in the presence of IL-2 or IL-15): small inhibition
- expansion of bone marrow cells ([10]; in the presence of IL-3, IL-4, IL-5, IL-7, IL-10, IL-12, IL-21 or no added cytokine): no significant effect
- EC50 Visual (pichinde virus [11]): >10 µg/mL
- IC50 Visual (pichinde virus [11]): >10 µg/mL
- Percentage Cytopathic Effect ([12]; relative CM concentration .008X): 56%
- Percentage Cytopathic Effect ([12]; relative CM concentration .0156X): 31%
- Percentage Cytopathic Effect ([12]; relative CM concentration .0325X): 10%
- Percentage Cytopathic Effect ([12]; relative CM concentration .0625X): 10%
- Percentage Cytopathic Effect ([12]; relative CM concentration .125X): 5%
- Percentage Cytopathic Effect ([12]; relative CM concentration .25X): 0%
- Percentage Cytopathic Effect ([12]; relative CM concentration .5X): 0%
- EC50 Visual (vaccinia virus): >10 µg/mL
- IC50 Visual (vaccinia virus): >10 µg/mL
- OAS activity in the serum and plasma of mice (OAS; C57BL/6 mice, i.v, 10 μg-250 μg): induced OAS activity
- OAS-1 hr (OAS activity) (OAS; mouse plasma, 250 μg i.v., 1 hr): 80 pmol/dL
- OAS-6 hr (OAS activity) (OAS; mouse plasma, 250 μg i.v., 6 hr): 80 pmol/dL
- OAS-24 hr (OAS activity) (OAS; mouse plasma, 250 μg i.v., 24 hr): 180 pmol/dL
- OAS-48 hr (OAS activity) (OAS; mouse plasma, 250 μg i.v., 48 hr): 200 pmol/dL
- TC50 (BCBL-1 cells): > 10 µg/mL
- TI (TC50/IC50) (HHV-8): > 1.85
- IC50 HHV-8 viral replication (HHV-8; extracellular HHV-8 DNA): 6.5 µg/mL
- EC50 Visual [13]: >10 µg/mL
- IC50 Visual [13]: >10 µg/mL
- EC50 NR (polio virus [14]): >10 µg/mL
- IC50 NR (polio virus [14]): >10 µg/mL
- liver histology: liver and inflammation scores versus PBS-treated group (adenoviral vector, AdGFP): lower liver and inflammation scores
- liver histology: sinusoidal cells, mitotic figures, hepatocyte changes versus PBS treatment group (adenoviral vector, AdGFP): less proliferation of sinusoidal cells, fewer mitotic figures and fewer changes in the hepatocytes
- average serum AST (adenoviral vector, AdGFP; 50 μg i.p., 7 doses, n=8): 162 U/L
- serum ALT (adenoviral vector, AdGFP; 50 μg i.p., 7 doses, n=8): 184 U/L

From patent publication US8734776B2 (ZymoGenetics, Inc., priority 2003, dated 2014)
